Drawing on article PMC10786891, “Massively parallel profiling of RNA-targeting CRISPR-Cas13d”, this text covers Kd for 27 molecules.

To fix the notation:
B1: target 1 insC 3' of 22,insA 3' of 19 (mixed)
RNA 1: CACCCGUGCAAAAAUGCAGGGGUCUAAAACUGAGCGGAUAACCUCUCUAUGG
RNA 2: GGGAAUGGAUCCACAUCUACGAAUUCGUACCCAUAAGAGAGGUUAUCCGCUCACCGAGAUCGGAAGAGCACACGU
B2: target 1 insG 3' of 8,insU 3' of 7 (mixed)
RNA 1: CACCCGUGCAAAAAUGCAGGGGUCUAAAACUGAGCGGAUAACCUCUCUAUGG
RNA 2: GGGAAUGGAUCCACAUCUACGAAUUCGUACCAUAGAGAGGUUAUGCUCGCUCACCGAGAUCGGAAGAGCACACGU
B3: target 1 U10G,G15A (mixed)
RNA 1: CACCCGUGCAAAAAUGCAGGGGUCUAAAACUGAGCGGAUAACCUCUCUAUGG
RNA 2: GGGAAUGGAUCCACAUCUACGAAUUCGUACCAUAGAAAGGUGAUCCGCUCACCGAGAUCGGAAGAGCACACGU
B4: target 1 C7G,G12C (mixed)
RNA 1: CACCCGUGCAAAAAUGCAGGGGUCUAAAACUGAGCGGAUAACCUCUCUAUGG
RNA 2: GGGAAUGGAUCCACAUCUACGAAUUCGUACCAUAGAGAGCUUAUGCGCUCACCGAGAUCGGAAGAGCACACGU
B5: target 1 insC 3' of 22,insG 3' of 8 (mixed)
RNA 1: CACCCGUGCAAAAAUGCAGGGGUCUAAAACUGAGCGGAUAACCUCUCUAUGG
RNA 2: GGGAAUGGAUCCACAUCUACGAAUUCGUACCCAUAGAGAGGUUAUGCCGCUCACCGAGAUCGGAAGAGCACACGU
B6: target 1 insC 3' of 19,insC 3' of 9 (mixed)
RNA 1: CACCCGUGCAAAAAUGCAGGGGUCUAAAACUGAGCGGAUAACCUCUCUAUGG
RNA 2: GGGAAUGGAUCCACAUCUACGAAUUCGUACCAUCAGAGAGGUUACUCCGCUCACCGAGAUCGGAAGAGCACACGU
B7: target 1 insA 3' of 22,insA 3' of 4 (mixed)
RNA 1: CACCCGUGCAAAAAUGCAGGGGUCUAAAACUGAGCGGAUAACCUCUCUAUGG
RNA 2: GGGAAUGGAUCCACAUCUACGAAUUCGUACACAUAGAGAGGUUAUCCGCAUCACCGAGAUCGGAAGAGCACACGU
B8: target 1 insA 3' of 11,insA 3' of 5 (mixed)
RNA 1: CACCCGUGCAAAAAUGCAGGGGUCUAAAACUGAGCGGAUAACCUCUCUAUGG
RNA 2: GGGAAUGGAUCCACAUCUACGAAUUCGUACCAUAGAGAGGUAUAUCCGACUCACCGAGAUCGGAAGAGCACACGU
B9: target 1 U8C,G12C (mixed)
RNA 1: CACCCGUGCAAAAAUGCAGGGGUCUAAAACUGAGCGGAUAACCUCUCUAUGG
RNA 2: GGGAAUGGAUCCACAUCUACGAAUUCGUACCAUAGAGAGCUUACCCGCUCACCGAGAUCGGAAGAGCACACGU
B10: target 1 insG 3' of 11,insG 3' of 2 (mixed)
RNA 1: CACCCGUGCAAAAAUGCAGGGGUCUAAAACUGAGCGGAUAACCUCUCUAUGG
RNA 2: GGGAAUGGAUCCACAUCUACGAAUUCGUACCAUAGAGAGGUGUAUCCGCUCGACCGAGAUCGGAAGAGCACACGU
B11: target 1 insU 3' of 4 (mixed)
RNA 1: CACCCGUGCAAAAAUGCAGGGGUCUAAAACUGAGCGGAUAACCUCUCUAUGG
RNA 2: GGGAAUGGAUCCACAUCUACGAAUUCGUACCAUAGAGAGGUUAUCCGCUUCACCGAGAUCGGAAGAGCACACGU
B12: target 1 C7G,C21U (mixed)
RNA 1: CACCCGUGCAAAAAUGCAGGGGUCUAAAACUGAGCGGAUAACCUCUCUAUGG
RNA 2: GGGAAUGGAUCCACAUCUACGAAUUCGUACUAUAGAGAGGUUAUGCGCUCACCGAGAUCGGAAGAGCACACGU
B13: target 1 G13C,G15C (mixed)
RNA 1: CACCCGUGCAAAAAUGCAGGGGUCUAAAACUGAGCGGAUAACCUCUCUAUGG
RNA 2: GGGAAUGGAUCCACAUCUACGAAUUCGUACCAUAGACACGUUAUCCGCUCACCGAGAUCGGAAGAGCACACGU
B14: target 1 insA 3' of 10,insC 3' of 3 (mixed)
RNA 1: CACCCGUGCAAAAAUGCAGGGGUCUAAAACUGAGCGGAUAACCUCUCUAUGG
RNA 2: GGGAAUGGAUCCACAUCUACGAAUUCGUACCAUAGAGAGGUUAAUCCGCUCCACCGAGAUCGGAAGAGCACACGU
B15: target 1 A9U,G15A (mixed)
RNA 1: CACCCGUGCAAAAAUGCAGGGGUCUAAAACUGAGCGGAUAACCUCUCUAUGG
RNA 2: GGGAAUGGAUCCACAUCUACGAAUUCGUACCAUAGAAAGGUUUUCCGCUCACCGAGAUCGGAAGAGCACACGU
B16: target 1 U8A,A16G (mixed)
RNA 1: CACCCGUGCAAAAAUGCAGGGGUCUAAAACUGAGCGGAUAACCUCUCUAUGG
RNA 2: GGGAAUGGAUCCACAUCUACGAAUUCGUACCAUAGGGAGGUUAACCGCUCACCGAGAUCGGAAGAGCACACGU
B17: target 1 insU 3' of 9,insU 3' of 1 (mixed)
RNA 1: CACCCGUGCAAAAAUGCAGGGGUCUAAAACUGAGCGGAUAACCUCUCUAUGG
RNA 2: GGGAAUGGAUCCACAUCUACGAAUUCGUACCAUAGAGAGGUUAUUCCGCUCAUCCGAGAUCGGAAGAGCACACGU
B18: target 1 A1U,A9C (mixed)
RNA 1: CACCCGUGCAAAAAUGCAGGGGUCUAAAACUGAGCGGAUAACCUCUCUAUGG
RNA 2: GGGAAUGGAUCCACAUCUACGAAUUCGUACCAUAGAGAGGUUCUCCGCUCUCCGAGAUCGGAAGAGCACACGU
B19: target 1 C6A,G13U (mixed)
RNA 1: CACCCGUGCAAAAAUGCAGGGGUCUAAAACUGAGCGGAUAACCUCUCUAUGG
RNA 2: GGGAAUGGAUCCACAUCUACGAAUUCGUACCAUAGAGAUGUUAUCAGCUCACCGAGAUCGGAAGAGCACACGU
B20: target 1 insU 3' of 22,insC 3' of 5 (mixed)
RNA 1: CACCCGUGCAAAAAUGCAGGGGUCUAAAACUGAGCGGAUAACCUCUCUAUGG
RNA 2: GGGAAUGGAUCCACAUCUACGAAUUCGUACUCAUAGAGAGGUUAUCCGCCUCACCGAGAUCGGAAGAGCACACGU
B21: target 1 insA 3' of 7,insG 3' of 4 (mixed)
RNA 1: CACCCGUGCAAAAAUGCAGGGGUCUAAAACUGAGCGGAUAACCUCUCUAUGG
RNA 2: GGGAAUGGAUCCACAUCUACGAAUUCGUACCAUAGAGAGGUUAUCACGCGUCACCGAGAUCGGAAGAGCACACGU
B22: target 1 U8A,G17U (mixed)
RNA 1: CACCCGUGCAAAAAUGCAGGGGUCUAAAACUGAGCGGAUAACCUCUCUAUGG
RNA 2: GGGAAUGGAUCCACAUCUACGAAUUCGUACCAUAUAGAGGUUAACCGCUCACCGAGAUCGGAAGAGCACACGU
B23: target 1 U10A,C21A (mixed)
RNA 1: CACCCGUGCAAAAAUGCAGGGGUCUAAAACUGAGCGGAUAACCUCUCUAUGG
RNA 2: GGGAAUGGAUCCACAUCUACGAAUUCGUACAAUAGAGAGGUAAUCCGCUCACCGAGAUCGGAAGAGCACACGU
B24: target 1 insA 3' of 17,insG 3' of 14 (mixed)
RNA 1: CACCCGUGCAAAAAUGCAGGGGUCUAAAACUGAGCGGAUAACCUCUCUAUGG
RNA 2: GGGAAUGGAUCCACAUCUACGAAUUCGUACCAUAGAAGAGGGUUAUCCGCUCACCGAGAUCGGAAGAGCACACGU
B25: target 1 insA 3' of 22,insG 3' of 11 (mixed)
RNA 1: CACCCGUGCAAAAAUGCAGGGGUCUAAAACUGAGCGGAUAACCUCUCUAUGG
RNA 2: GGGAAUGGAUCCACAUCUACGAAUUCGUACACAUAGAGAGGUGUAUCCGCUCACCGAGAUCGGAAGAGCACACGU
B26: target 1 insG 3' of 14,insU 3' of 13 (mixed)
RNA 1: CACCCGUGCAAAAAUGCAGGGGUCUAAAACUGAGCGGAUAACCUCUCUAUGG
RNA 2: GGGAAUGGAUCCACAUCUACGAAUUCGUACCAUAGAGAGGUGUUAUCCGCUCACCGAGAUCGGAAGAGCACACGU
B27: target 1 G5U,C7A (mixed)
RNA 1: CACCCGUGCAAAAAUGCAGGGGUCUAAAACUGAGCGGAUAACCUCUCUAUGG
RNA 2: GGGAAUGGAUCCACAUCUACGAAUUCGUACCAUAGAGAGGUUAUACUCUCACCGAGAUCGGAAGAGCACACGU

This series deals with T1, EsCas13d, nuclease-dead (Eubacterium siraeum, UniProt B0MS50, R295A;H300A;R849A;H854A).
T1 sequence: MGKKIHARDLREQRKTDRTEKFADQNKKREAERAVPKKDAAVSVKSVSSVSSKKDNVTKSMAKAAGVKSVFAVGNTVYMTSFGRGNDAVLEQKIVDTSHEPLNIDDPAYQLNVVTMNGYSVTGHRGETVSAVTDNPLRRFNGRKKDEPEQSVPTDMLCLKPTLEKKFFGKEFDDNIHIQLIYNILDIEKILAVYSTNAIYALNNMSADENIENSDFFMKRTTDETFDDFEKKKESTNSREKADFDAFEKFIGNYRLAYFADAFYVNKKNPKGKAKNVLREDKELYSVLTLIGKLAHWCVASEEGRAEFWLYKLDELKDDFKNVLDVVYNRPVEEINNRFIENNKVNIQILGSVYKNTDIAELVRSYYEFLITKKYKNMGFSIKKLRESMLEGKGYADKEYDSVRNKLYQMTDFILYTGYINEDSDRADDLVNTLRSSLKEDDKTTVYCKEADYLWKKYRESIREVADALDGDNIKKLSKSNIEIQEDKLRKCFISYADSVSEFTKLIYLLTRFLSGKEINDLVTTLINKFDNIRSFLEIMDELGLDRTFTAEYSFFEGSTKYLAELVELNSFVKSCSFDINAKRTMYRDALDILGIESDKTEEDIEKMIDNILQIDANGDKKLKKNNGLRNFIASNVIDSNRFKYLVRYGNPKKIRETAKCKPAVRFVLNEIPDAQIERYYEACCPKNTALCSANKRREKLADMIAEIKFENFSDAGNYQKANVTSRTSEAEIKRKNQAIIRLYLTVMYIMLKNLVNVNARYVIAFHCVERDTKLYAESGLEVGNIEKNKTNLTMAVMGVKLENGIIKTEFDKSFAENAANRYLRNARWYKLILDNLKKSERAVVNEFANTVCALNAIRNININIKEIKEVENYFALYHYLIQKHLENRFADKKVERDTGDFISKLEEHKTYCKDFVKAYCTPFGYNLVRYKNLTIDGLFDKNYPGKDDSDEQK
Nature of the series: crRNA (strand 1, pre-loaded); Mg2+; 40 mM Tris-HCl pH 7.5, 150 mM NaCl, 6 mM MgCl2, 1 mM DTT, 0.1% Tween-20, 0.2 mg/ml BSA; 25 C; 10 min per concentration, then washed. The following applies: tags: His6-TwinStrep-SUMO cleaved; N-terminal SNAP kept (SNAP-Surface 488); label: 3' end held by stalled T7 RNA polymerase.
In turn, B1 yielded a Kd of 30 ± 9 nM.
Regarding B2, the Kd worked out at 14.1 ± 0.5 nM. This Kd is about 2.1-fold lower than that of the molecule before.
The same measure for B3: 53 ± 15 nM; for B4: 23.6 ± 1.4 nM; for B5: 33 ± 4 nM.
The molecule B6 returned a Kd of 56 ± 11 nM.
The same measure for B7: 7.8 ± 1.1 nM; for B8: 8.7 ± 0.4 nM; for B9: 18.1 ± 0.6 nM.
For the molecule B10, the Kd amounted to 57 ± 8 nM.
B11: the Kd was 8.7 ± 0.7 nM.
In the case of B12, the Kd was 6.7 ± 0.31 nM.
The molecule B13 displayed a Kd of 52 ± 22 nM. This Kd lies about 7.8-fold higher than the previous one.
The molecule B14 yielded a Kd of 10.3 ± 0.6 nM.
In the case of B15, binding was put at a Kd of 19.1 ± 1.4 nM.
Take B16: the Kd worked out at 64 ± 6 nM.
In the case of B17, binding was put at a Kd of 32 ± 7 nM. This Kd is about 2-fold lower than that of the molecule before.
As to B18, the Kd was 15.4 ± 1.7 nM.
In turn, B19 returned a Kd of 34 ± 4 nM.
Take B20: the affinity, expressed as Kd, was 100 ± 50 nM.
With B21 the figure was 5.33 ± 0.17 nM; with B22, 61 ± 8 nM.
With B23 the figure was 33 ± 5 nM; with B24, 15.5 ± 0.7 nM; with B25, 42 ± 8 nM.
With B26 the figure was 22.8 ± 2.7 nM.
The molecule B27 gave a Kd of 56 ± 9 nM.

In general, Kd refers to a measure of binding affinity in units of concentration. A higher Kd goes with weaker binding.
